Laboratory results from US20100216161.
Like-named read-outs stand apart in the source and are kept apart here.

T1: NS5AB peptide substrate NH2-EDVV-(alpha)Abu-CSMSY-COOH
T1 chain: EDVVXCSMSY

T2: FITC-NS5AB-1 peptide substrate FITC-Ahx-EDVV-(alpha)Abu-CSMSYTKK-NH2
T2 chain: XEDVVXCSMSYTKK

T3: NS5AB-EDANS peptide substrate NH2-EDVV-(alpha)Abu-CSMSYT-Asp(EDANS)-KKK-COOH
T3 chain: EDVVXCSMSYTDKKK

B1: NS3•4A protein with an N-terminal histidine tag (protein)
chain: MSHHHHHHAMAPITAYAQQTRGLLGCIITSLTGRDKNQVEGEVQIVSTATQTFLATCINGVCWTVYHGAGTRTIASPKGPVIQMYTNVDQDLVGWPAPQGSRSLTPCTCGSSDLYLVTRHADVIPVRRRGDSRGSLLSPRPISYLKGSSGGPLLCPAGHAVGLFRAAVCTRGVTKAVDFIPVENLETTMRSPVFTDNSSPPAVPQSFQVAHLHAPTGSGKSTKVPAAYAAQGYKVLVLNPSVAATLGFGAYMSKAHGVDPNIRTGVRTITTGSPITYSTYGKFLADGGCSGGAYDIIICDECHSTDATSILGIGTVLDQAETAGARLVVLATATPPGSVTVSHPNIEEVALSTTGEIPFYGKAIPLEVIKGGRHLIFCHSKKKCDELAAKLVALGINAVAYYRGLDVSVIPTNGDVVVVSTDALMTGFTGDFDSVIDCNTCVTQTVDFSLDPTFTIETTTLPQDAVSRTQRRGRTGRGKPGIYRFVAPGERPSGMFDSSVLCECYDAGCAWYELMPAETTVRLRAYMNTPGLPVCQDHLEFWEGVFTGLTHIDAHFLSQTKQSGENFPYLVAYQATVCARAQAPPPSWDQMWKCLIRLKPTLHGPTPLLYRLGAVQNEVTLTHPITKYIMTCMSADLEVVTSTWVLVGGVLAALAAYCLSTGCVVIVGRIVLSGKPAIIPDREVLYQEFDEMEEC

Tests used:
[1] = test system: NS5AB peptide substrate NH2-EDVV-(alpha)Abu-CSMSY-COOH
[2] = target: T1, NS5AB peptide substrate …
[3] = target: T2, FITC-NS5AB-1 peptide substrate …
[4] = target: T3, NS5AB-EDANS peptide substrate …

| Molecule | Km [1] [µM] | kcat/Km [1] [M⁻¹ s⁻¹] | Km [2] [µM] | kcat/Km [2] [M⁻¹ s⁻¹] | Km [3] [µM] | kcat/Km [3] [M⁻¹ s⁻¹] | Km [4] [µM] | kcat/Km [4] [M⁻¹ s⁻¹] |
| --- | --- | --- | --- | --- | --- | --- | --- | --- |
| HCV NS3 protease domain (residues Ala1-Ser181 of HCV NS3 protease, C-terminal hexa-histidine tag) | 25 | 30000 |  |  |  |  |  |  |
| B1 |  |  | 30 | 7900 | 15 | 1200 | 56 | 1400 |
